Test results published in article PMC11786531.

What follows are substances tested against heparan sulfate proteoglycans (assay: SPR competition (HSPG with LF or LF mutant flowed over PEDV S protein immobilised on a CM5 chip)). Settings: parent: est. 5.0; read off a plot.

Point of comparison: “Lactoferrin (from UniProt P14632) P1963L”, response 69 RU. Against it:
- Lactoferrin (from UniProt P14632) G1607L — lower, 3.5 RU
- Lactoferrin (from UniProt P14632) P1641L — the same, 69 RU
